Test system: NusA-Notch fusion protein (NusA fused to mouse Notch-1 N1703-D1860 with C-terminal Flag and 8His tags), uncleaved

Substance: solubilized gamma-secretase from HeLa cells
- apparent Km for hydrolysis (Notch cleavage ELISA): about 0.7 µM
- specific cleavage at the 1743-1744 junction: γ-secretase activity from HeLa cells specifically cleaves the Notch protein at the 1743-1744 junction

Source: patent US20110098227
